Experiments:
[1] = biological target: R17^GAG2 (333KGRRK337 to 333DGEED337) (rodent herpesvirus Peru (RHVP)); assay: SPR
[2] = biological target: R17 266NAGAQ270 mutant (rodent herpesvirus Peru (RHVP)); assay: SPR

murine CCL2^K47N (from UniProt P10148 24-148) (ligand)
t1/2 [1]: 5.5 s

murine CCL2^L46R (from UniProt P10148 24-148) (ligand)
fold longer half life than wild type CCL2 [1]: 2 fold

murine CCL2^L46RK47N (from UniProt P10148 24-148) (ligand)
t1/2 [1]: > 900 s

B1: murine CCL3 (ligand)
chain: APYGADTPTACCFSYSRKIPRQFIVDYFETSSLCSQPGVIFLTKRNRQICADSKETWVQEYITDLELNA
fold faster kinetic off-rate than with wild type R17 [2]: > 100 fold | t1/2 [2]: 11 s
